Test results from patent publication US9206432B2, “Sulfonylurea-responsive repressor proteins” (priority 2008, dated 2015).

Tested on: lacZ under control of the tetA promoter (PtetA) in E. coli KM3
Format: cell-based
Conditions: for relative β-galactosidase activity, inducer atc / relative β-galactosidase activity, inducer Ci / relative β-galactosidase activity, inducer Cs / relative β-galactosidase activity, inducer Es / relative β-galactosidase activity, inducer Ms / relative β-galactosidase activity, inducer Ns / relative β-galactosidase activity, inducer Rs / relative β-galactosidase activity, inducer Sm / relative β-galactosidase activity, inducer Ts / relative β-galactosidase activity, inducer Tb: Table 6, reverse repressor hits; for relative β-galactosidase activity, inducer atc: anhydrotetracycline (0.4 μM); for relative β-galactosidase activity, inducer Ci: chlorimuron; for relative β-galactosidase activity, inducer Ci / relative β-galactosidase activity, inducer Cs / relative β-galactosidase activity, inducer Es / relative β-galactosidase activity, inducer Ms / relative β-galactosidase activity, inducer Ns / relative β-galactosidase activity, inducer Rs / relative β-galactosidase activity, inducer Sm / relative β-galactosidase activity, inducer Ts / relative β-galactosidase activity, inducer Tb: same plate assay format (20 ppm); for relative β-galactosidase activity, inducer Cs: chlorsulfuron; for relative β-galactosidase activity, inducer Es: ethametsulfuron; for relative β-galactosidase activity, inducer Ms: metsulfuron; for relative β-galactosidase activity, inducer Ns: nicosulfuron; for relative β-galactosidase activity, inducer Rs: rimsulfuron; for relative β-galactosidase activity, inducer Sm: sulfometuron; for relative β-galactosidase activity, inducer Ts: thifensulfuron; for relative β-galactosidase activity, inducer Tb: tribenuron; for 0.2 ppm 48 hr (colony color intensity, induction by chlorsulfuron): 0.2 ppm chlorsulfuron as inducer, 48 hr at 30° C.; for 0.2 ppm 48 hr (colony color intensity, induction by chlorsulfuron) / Control 84 hr (background activity, no inducer): M9 assay plates, ImageJ colony color intensity; for Control 84 hr (background activity, no inducer): 84 hr at 30° C.

Molecule | relative β-galactosidase activity, inducer atc | relative β-galactosidase activity, inducer Ci | relative β-galactosidase activity, inducer Cs | relative β-galactosidase activity, inducer Es | relative β-galactosidase activity, inducer Ms | relative β-galactosidase activity, inducer Ns | relative β-galactosidase activity, inducer Rs | relative β-galactosidase activity, inducer Sm | relative β-galactosidase activity, inducer Ts | relative β-galactosidase activity, inducer Tb | 0.2 ppm 48 hr/Control 84 hr | 0.2 ppm 48 hr (colony color intensity, induction by chlorsulfuron) | Control 84 hr (background activity, no inducer)
L1-25: library L1 hit with reverse repressor activity (SEQ ID NO: 1206-1213) (protein, rSuR L1-25) MGSRLDKSKVINSALELLNEVGIEGLTTRKLAQKLGVEQPTLYWHVKNKRALLDALAIEMLDRHATHFCPLEGESWQDFLRNTAKSMRCALLSHRDGAKVLLGTATTEKQYETLENLLAFLYQQGFSLENALYAWQAVWRFTLGCVLIDQETQVAKEERETPTTDSMPPLLRQAVELKDHQGAEPAFLFGLELIICGLEKQLKCETGS | 1.22 | 0.11 | 0.28 | 0.13 | 0.32 | 1.21 | 1.08 | 0.63 | 0.64 | 1.72 |  |  | 
L1-33: library L1 hit with reverse repressor activity (SEQ ID NO: 1206-1213) (protein, rSuR L1-33) MGSRLDKSKVINSALELLNEVGIEGLTTRKLAQKLGVEQPTLYWHVKNKRALLDALAIEMLDRHATHFCPLEGESWQDFLRNNAKSMRCALLSHRDGAKVQLGTAATEKQYETLENKLAFLCQQGFSLENALYAHSAVTQFTLGCVLRDQEGQVAKEERETPTTDSMPPLLRQARELRDHQGAEPAFLFGLELIICGLEKQLKCESGS | 8.25 | 0.76 | 3.74 | 2.11 | 4.29 | 5.34 | 10.32 | 5.02 | 5.51 | 4.71 |  |  | 
L6-1B03 (protein, Sulfonylurea responsive repressor L6-1B03) MGSRLDKSKVINSALELLNEVGIEGLTTRKLAQKLGVEQPTLYWHVKNKRALLDALAIEMMDRHATHICPLEGESWQDFLRNNAKSMRCALLSHRDGAKVCLGTRWTEQQYEAAENMLAFLCQQGFSLENALYAVSAVRVFTLGCVLFDQESQVAKEERETPTTASMPPLLRQAWELKDHQGAEPAFLFGLELIICGLEKQLKCESGS |  |  |  |  |  |  |  |  |  |  | 4.6 | 30.0 | 6.6
L6-2C09 (protein, Sulfonylurea responsive repressor L6-2C09) MGSRLDKSKVINSALELLNEVGIEGLTTRKLAQKLGVEQPTLYWHVKNKRALLDALAIEMMDRHQTHYCPLEGESWQDFLRNTAKSMRCALLSHRDGAKVCLGTRWTEQLYETAENQLAFLCQQGFSLENALYAMSAVRVFTLGCVLFDQELQVAKEERETPTTASMPPLLRQAWELKDHQGAEPAFLFGLELIICGLEKQLKCESGS |  |  |  |  |  |  |  |  |  |  | 2.6 | 13.6 | 5.2
L6-2D07 (protein, Sulfonylurea responsive repressor L6-2D07) MGSRLDKSKVINSALELLNEVGIEGLTTRKLAQKLGVEQPTLYWHVKNKRALLDALAIEMMDRHQTHFCPLEGESWQDFLRNTAKSMRCALLSHRDGAKVCLGTRWTEQQYETAENMLAFLCQQGFSLENALYAMSAVRVFTLGCVLFDQESQVAKEERETPTTASMPPLVRQAWELKDHQGAEPAFLFGLELIICGLEKQLKCESGS |  |  |  |  |  |  |  |  |  |  | 3.4 | 20.0 | 5.8
L6-5H12 (protein, Sulfonylurea responsive repressor L6-5H12) MGSRLDKSKVINSALELLNEVGIEGLTTRKLAQKLGVEQPTLYWHVKNKRALLDALAIEMMDRHATHYCPLEGESWQDFLRNNAKSMRCALLSHRDGAKVCLGTRWTEKQYETAENQLAFLCQQGFSLENALYAMSAVRVFTLGCVLFDQELQVAKEERETPTTASMPPLVRQAWELKDHQGAEPAFLFGLELIICGLEKQLKCESGS |  |  |  |  |  |  |  |  |  |  | 4.2 | 23.7 | 5.7
L6-3H02: SuR polypeptide, SEQ ID NO: 94 (protein, Sulfonylurea responsive repressor L6-3H02) MGSRLDKSKVINSALELLNEVGIEGLTTRKLAQKLGVEQPTLYWHVKNKRALLDALAIEMMDRHATHYCPLEGESWQDFLRNTAKSMRCALLSHRDGAKVCLGTRWTEQHYESAENMLAFLCQQGFSLENALYAVSAVRVFTLGCVLFDQESQVAKEERETPTTASMPPLVRQAWELKVHQGAEPAFLFGLELIICGLEKQLKCESGS |  |  |  |  |  |  |  |  |  |  | 2.8 | 15.8 | 5.6
L6-5H06 (protein, Sulfonylurea responsive repressor L6-5H06) MGSRLDKSKVINSALELLNEVGIEGLTTRKLAQKLGVEQPTLYWHVKNKRALLDALAIEMMDRHQTHICPLEGESWQDFLRNNAKSMRCALLSHRDGAKVCLGTRWTEKQYETAENMLAFLCQQGFSLENALYAVSAVRVFTLGCVLFDQELQVAKEERETPTTASMPPLVRQAWELKDHQGAEPAFLFGLELIICGLEKQLKCESGS |  |  |  |  |  |  |  |  |  |  | 2.7 | 13.7 | 5.1
L6-5G06 (protein, Sulfonylurea responsive repressor L6-5G06) MGSRLDKSKVINSALELLNEVGIEGLTTRKLAQKLGVEQPTLYWHVKNKRALLDALAIEMMDRHQTHYCPLEGESWQDFLRNNAKSMRCALLSHRDGAKVCLGTRWTEQQYETAENQLAFLCQQGFSLENALYAVSAVRVFTLGCVLFDQELQVAKEERETPTTASMPPLLRQGWELKDHQGAEPAFLFGLELIICGLEKQLKCESGS |  |  |  |  |  |  |  |  |  |  | 4.9 | 34.4 | 7.0
L6-4D10 (protein, Sulfonylurea responsive repressor L6-4D10) MGSRLDKSKVINSALELLNEVGIEGLTTRKLAQKLGVEQPTLYWHVKNKRALLDALAIEMMDRHQTHYCPLEGESWQDFLRNNAKSMRCALLSHRDGAKVCLGTRWTEKQYESAENMLAFLCQQGFSLENALYAVSAVRVFTLGCVLFDQESQVAKEERETPTTASMPPLLRQAWELKDHQGAEPAFLFGLELIICGLEKQLKCESGS |  |  |  |  |  |  |  |  |  |  | 3.7 | 18.4 | 5.0
L6-5F05 (protein, Sulfonylurea responsive repressor L6-5F05) MGSRLDKSKVINSALELLNEVGIEGLTTRKLAQKLGVEQPTLYWHVKNKRALLDALAIEMMDRHATHICPLEGESWQDFLRNNAKSMRCALLSHRDGAKVCLGTRWTEQQYEAAENQLAFLCQQGFSLENALYAVSAVRVFTLGCVLFDQELQVAKEERETPTTASMPPLLRQAWELKDHQGAEPAFLFGLELIICGLEKQLKCESGS |  |  |  |  |  |  |  |  |  |  | 4.1 | 22.0 | 5.4
L6-6F07 (protein, Sulfonylurea responsive repressor L6-6F07) MGSRLDKSKVINSALELLNEVGIEGLTTRKLAQKLGVEQPTLYWHVKNKRALLDALAIEMMDRHATHLCPLEGESWQDFLRNTAKSMRCALLSHRDGAKVCLGTRWTEQQYESAENMLAFLCQQGFSLENALYAMSAVRVFTLGCVLFDQESQVAKEERETPTTASMPPLLRQAWELKDHQGAEPAFLFGLELIICGLEKQLKCESGS |  |  |  |  |  |  |  |  |  |  | 2.3 | 11.6 | 5.1
L1-34: library L1 hit with reverse repressor activity (SEQ ID NO: 1206-1213) (protein, rSuR L1-34) MGSRLDKSKVINSALELLNEVGIEGLTTRKLAQKLGVEQPTLYWHVKNKRALLDALAIEMADRHNTHFCPLEGESWQDFLRNAARSMRCALLSHRDGAKVYLGTARTEKQYETTENVLAFLCQQGFSLENALYAVRAVPRFTLGCVLLDQERQVAKEERETPTTDSMPPLLRQARELTDHQGAEPAFLFGLELIICGLEKQLKCESGS | 3.68 | 0.43 | 0.85 | 1.33 | 1.47 | 2.91 | 2.30 | 2.00 | 2.97 | 2.26 |  |  | 
